In patent publication US20260234252A1 (Janssen / Centocor, published 2026) one finds EC50 data, which are given here for two molecules.

Where “and” joins values, the source holds several entries; their conditions need not be identical. Equal entries are not always repeated.

In this assay the target is T1, Vβ17 on human CD8+ T cells (human).
T1 construct: whole, on cells; Polyclonal donor T cells; also called Vβ17+ CD8+ T cells; M1-stimulated T-cells
Put plainly: flow cytometry on FLU MP 58 stimulated CD8+ T cells, anti-human IgG4 Fc-PE. On the technique in general: Flow cytometry measures light scatter and fluorescence of single cells or particles in a stream.

T1 sequence (A0A075B6N1 22-114): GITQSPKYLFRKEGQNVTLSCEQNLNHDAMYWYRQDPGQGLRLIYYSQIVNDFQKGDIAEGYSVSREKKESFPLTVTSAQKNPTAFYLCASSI
Procedure: Mouse anti-human IgG4 Fc-PE secondary antibody was used to detect the bispecific antibody.
Bispecific antibody binding affinities to CD8+ T cell were determined by flow cytometry.

B1: VB11 (anti-Vβ17/anti-CD123) bispecific antibody (bispecific antibody, human IgG4 S228P, kappa, F234A L235A)
heavy 1: QVQLQESGPGLVKPSETLSLTCTVSGYSITSGYFWNWIRQPPGKGLEWIGYISYDGSNNYNPSLKSRVTISRDTSKNQFSLKLSSVTAADTAVYYCASPSPGTGYAVDYWGQGTLVTVSSASTKGPSVFPLAPCSRSTSESTAALGCLVKDYFPEPVTVSWNSGALTSGVHTFPAVLQSSGLYSLSSVVTVPSSSLGTKTYTCNVDHKPSNTKVDKRVESKYGPPCPPCPAPEAAGGPSVFLFPPKPKDTLMISRTPEVTCVVVDVSQEDPEVQFNWYVDGVEVHNAKTKPREEQFNSTYRVVSVLTVLHQDWLNGKEYKCKVSNKGLPSSIEKTISKAKGQPREPQVYTLPPSQEEMTKNQVSLSCAVKGFYPSDIAVEWESNGQPENNYKTTPPVLDSDGSFFLVSRLTVDKSRWQEGNVFSCSVMHEALHNRFTQKSLSLSLGK
light 1: DIQMTQSPSSLSASVGDRVTITCRSSQSLVHSNGNTYLHWYQQKPGKAPKFLIYKVSNRFSGVPSRFSGSGSGTDFTLTISSLQPEDFATYYCSQSTHVPFTFGQGTKLEIKRTVAAPSVFIFPPSDEQLKSGTASVVCLLNNFYPREAKVQWKVDNALQSGNSQESVTEQDSKDSTYSLSSTLTLSKADYEKHKVYACEVTHQGLSSPVTKSFNRGEC
heavy 2: EVQLVQSGAEVKKPGESLKISCKGSGYSFTSYWISWVRQMPGKGLEWMGIIDPSDSDTRYSPSFQGQVTISADKSISTAYLQWSSLKASDTAMYYCARGDGSTDLDYWGQGTLVTVSSASTKGPSVFPLAPCSRSTSESTAALGCLVKDYFPEPVTVSWNSGALTSGVHTFPAVLQSSGLYSLSSVVTVPSSSLGTKTYTCNVDHKPSNTKVDKRVESKYGPPCPPCPAPEAAGGPSVFLFPPKPKDTLMISRTPEVTCVVVDVSQEDPEVQFNWYVDGVEVHNAKTKPREEQFNSTYRVVSVLTVLHQDWLNGKEYKCKVSNKGLPSSIEKTISKAKGQPREPQVYTLPPSQEEMTKNQVSLWCLVKGFYPSDIAVEWESNGQPENNYKTTPPVLDSDGSFFLYSRLTVDKSRWQEGNVFSCSVMHEALHNHYTQKSLSLSLGK
light 2: EIVLTQSPGTLSLSPGERATLSCRASQSVSSSYLAWYQQKPGQAPRLLIYGASSRATGIPDRFSGSGSGTDFTLTISRLEPEDFAVYYCQQDYGFPWTFGQGTKVEIKRTVAAPSVFIFPPSDEQLKSGTASVVCLLNNFYPREAKVQWKVDNALQSGNSQESVTEQDSKDSTYSLSSTLTLSKADYEKHKVYACEVTHQGLSSPVTKSFNRGEC
notes: also called Vβ17 and CD123 bispecific
By EC50 is commonly meant the concentration that produces a half-maximal response. Read a high EC50 as a less potent agent. For B1, the EC50 was 1.35 µg/mL and 9 nM.

B2: VB13 (Vβ17×Null) bispecific antibody (bispecific antibody, human IgG4 S228P, kappa, F234A L235A)
heavy 1: QVQLQESGPGLVKPSETLSLTCTVSGYSITSGYFWNWIRQPPGKGLEWIGYISYDGSNNYNPSLKSRVTISRDTSKNQFSLKLSSVTAADTAVYYCASPSPGTGYAVDYWGQGTLVTVSSASTKGPSVFPLAPCSRSTSESTAALGCLVKDYFPEPVTVSWNSGALTSGVHTFPAVLQSSGLYSLSSVVTVPSSSLGTKTYTCNVDHKPSNTKVDKRVESKYGPPCPPCPAPEAAGGPSVFLFPPKPKDTLMISRTPEVTCVVVDVSQEDPEVQFNWYVDGVEVHNAKTKPREEQFNSTYRVVSVLTVLHQDWLNGKEYKCKVSNKGLPSSIEKTISKAKGQPREPQVYTLPPSQEEMTKNQVSLSCAVKGFYPSDIAVEWESNGQPENNYKTTPPVLDSDGSFFLVSRLTVDKSRWQEGNVFSCSVMHEALHNRFTQKSLSLSLGK
light 1: DIQMTQSPSSLSASVGDRVTITCRSSQSLVHSNGNTYLHWYQQKPGKAPKFLIYKVSNRFSGVPSRFSGSGSGTDFTLTISSLQPEDFATYYCSQSTHVPFTFGQGTKLEIKRTVAAPSVFIFPPSDEQLKSGTASVVCLLNNFYPREAKVQWKVDNALQSGNSQESVTEQDSKDSTYSLSSTLTLSKADYEKHKVYACEVTHQGLSSPVTKSFNRGEC
heavy 2: not shown
light 2: not shown
notes: also called Vβ17XNULL; Vβ17 x Null
Consider B2, for which the EC50 was 2.8 µg/mL and 18.7 nM.
